This passage reports Expression results from US20230226096A1 (Orna Therapeutics, Inc., priority 2020, published 2023).

The data set relates to HEK293 cells. In kind it is cell-based, human. Particulars: luminescence from secreted Gluc in supernatant 24 hours after transfection of HEK293 cells; circular RNA encoding Gluc with the named IRES (UTR truncated to 675 nt).

B1: SAV P-113 (nucleic acid)
DNA: GGAGATCTAAGTCAACCGACTCCGACGAAACTACCATCATGCCTCCCCGATTATGTGATGCTTTCTGCCCTGCTGGGTGGAGCATCCTCGGGTTGAGAAAACCTTCTTCCTTTTTCCTTGGACCCCGGTCCCCCGGTCTAAGCCGCTTGGAATAAGACAGGGTTATCTTCACCTCTTCCTTCTTCTACTTCATAGTGTTCTATACTATGAAAGGGTATGTGTCGCCCCTTCCTTCTTTGGAGAACACGCGCGGCGGTCTTTCCGTCTCTCGAAAAGCGCGTGTGCGACATGCAGAGAACCGTGAAGAAAGCAGTTTGCGGACTAGCTTTAGTGCCCACAAGAAAACAGCTGTAGCGACCACACAAAGGCAGCGGACCCCCCCTCCTGGCAACAGGAGCCTCTGCGGCCAAAAGCCACGTGGATAAGATCCACCTTTGTGTGCGGCACAACCCCAGTGCCCTGGTTTCTTGGTGACACTTCAGTGAAAACGCAAATGGCGATCTGAAGCGCCTCTGTAGGAAAGCCAAGAATGTCCAGGAGGTACCCCTTCCCTCGGGAAGGGATCTGACCTGGAGACACATCACATGTGCTTTACACCTGTGCTTGTGTTTAAAAATTGTCACAGCTTTCCCAAACCAAGTGGTCTTGGTTTTCACTCTTTAAACTGATTTCACT
In the case of B1, the Expression was 4.37E+07.

B2: Hunnivirus A2 (nucleic acid, listed as Hunnivirus sp.)
DNA: ACAGTTTTTGACAAGGACCCTCACCTGTCAATCGGGACCACCACTTTCAGTGACCCCGTGCGAAGTGTTGAGAGAAAGTGAGCTTTCTTACCCTTCATTTGTGAACCCTTCAGTCGAAGCCGCTTGGAATAAGATGGAAGGAAATGTTCATTCTAAATGGAGTGAAACATATACTTAATTTCCAGTGTTTAGTGGTCTTTCCACTAGACAACGGCACTGTCTTGCCGGAACTCTACACACCAACATTCCACGCTTGTGGGACTCAAATGTTGGATGACACAGTTGTAGCTGGAACTGAGTGTTTAGTGCACTCTGTGTAACAGTGAAAACAATGTGATCACTTCGGTGGGCTAGTAGCCTGTGGACTAACAACTGGTAACAGTTGCCTCAGGGGCCAAAAGCCACGGTGTTAACAGCACCCTACTAGTTTGATTGGAGCAATCCATGATGTTACAGAGTTAGTAACTGCCAAACAGATTGTACTGGTATCTTGGCATACCGTGCAACTTAGGATAGTGAAGGATGCCCTGGCGGTACCCATAGGTAACAAGTGACACTATGGATCTAAACAGGGGCTCACTCTACGTTGCTTTACAACTAGCTGTGAGTTAAAAAACGTCTAACTATCCACAACCTAGGGGACTAGGTTTTCCTTTTTATTTTTATACACAACTA
For the molecule B2, the Expression is 6.38E+06.

B3: BRAV-2 (nucleic acid)
DNA: TTTGTTTTGCGGCTTTGCCGTTGTTCGGGTTTTACCTGTTTTCACACAGCAAAACAGGCCTTCTAGTTTCGTGCTTAAACGAGATCATGCTCGAACTAGAACTACATAGCTGGTCACTGGACTCATACCACACCTTGTGGAGCTTTATGGGAAAGGTGGCTAGTGGGCTGTGGAAGTGACTCTGACCACATGCCTCTCAAGTGTGGGAAATCACGGATCGGTGTAGCGACGACAACAGGCCTTGGGACACCCTCTCCAGTAATGGAGACCCAAGGGGCCAAAAGCCACGCCTCGTGCCCTGTTGTTCACAACCCCAGTGCGACCCGTGTTAGTACCTATTTGCGAGAACTGTGTCTGGACAGCTAAACACAACCCTAGTGGGAGACTAAGGATGCCCAGGAGGTACCCGGAGGTAACAAGTGACACTCTGGATCTGACCTGGGGAGAGAGGGCTTGCTTTACAGGCGCCTCTCTTTAAAAAGCTTCTATGTCTCATCAGGCACCGGAGGCCGGGCCTTTTCCTTTTAAAATTACACTTA
modifications: Bovine rhinitis A virus
B3 returned an Expression of 3.98E+06.

B4: VHEV (nucleic acid)
DNA: AATTCCTTCTTCCTTTCTCCTTGGACCTCGGTCCCCCGGTCTAAGCCGCTCGGAATATGACAGGGTTATTTTCACCTCTTCTCTCTTCTACTTCATAGTGTTCTATACTATGAAAGGGTATGTGTCGCCCCTTCCTTCTTGGAGAACGTGCGTGGCGGTCTTTCCGTCTCTCGAAAAACGTGCGTGCGACATGCAGAGTAACGCAAAGAAAGCAGTTCTTGGTCTAGCTCTGGTGCCCACAAGAAAACAGCTGTAGCGACCACACAAAGGCAGCGGAAACCCCCTCCTGGTAACAGGAGCCTCTGCGGCCAAAAGCCACGTGGATAAGATCCACCTTTGTGTGCGGTGCAACCCCAGCACCCTGGTTTCTTGGTGACACCTTAGTGAACCCTCGAATGGCAATCTCAAGCGCCTCTGTAGGAAAGCCAAGAATGTCCAGGAGGTACCCCTTCCTCATGGAGGGATCTGACCTGGAGACACATCACACGTGCTATACACTTGTGCTTGTGTTTAAAAATTGTCACAGCTTTCCCAAACCAAGTGGTCTTGGTTTTCCCTTAACTTCGAAAAGTCACTATGGCCTGCAAACATGGATACCCAGACGTGTGCCCT
On to B4, for which the Expression is recorded as 1.74E+08.

B5: SAFV V13C (nucleic acid)
DNA: TTTTCGACGTGGTTGGAATTGCCATCATTTCCGACGAAAGTGCTATCATGCCTCCCCGATTATGTGATGTTTTCTGCCCTGCTGGGCGGAGCATTCTCGGGTTGAGAAACCTTGAATCTTTTTCTTTGGAACCTTGGTTCCCCCGGTCTAAGCCGCTTGGAATATGACAGGGTTATTTTCTTGATCTTATTTCTACTTTTGCGGGTTCTATCCGTAAAAAGGGTACGTGCTGCCCCTTCCTTCTCTGGAGAATTCACACGGCGGTCTTTCCGTCTCTCAACAAGTGTGAATGCAGCATGCCGGAAACGGTGAAGAAAACAGTTTTCTGTGGAAATTTAGAGTGCACATCGAAACAGCTGTAGCGACCTCACAGTAGCAGCGGACTCCCCTCTTGGCGACAAGAGCCTCTGCGGCCAAAAGCCCCGTGGATAAGATCCACTGCTGTGAGCGGTGCAACCCCAGCACCCTGGTTCGATGATCATTCTCTATGGAACCAGAAAATGGTTTTCTCAAGCCCTCCGGTAGAGAAGCCAAGAATGTCCTGAAGGTACCCCGCGTGCGGGATCTGATCAGGAGACCAATTGGCGGTGCTTTACACTGTCACTTTGGTTTAAAAATTGTCACAGCTTCTCCAAACCAAGTGGTCTTGGTTTTCCAATTTTGTTGAATGGCAAT
As for B5, the Expression turned out to be 9.32E+07.

B6: Ia Io (nucleic acid)
DNA: GGTGTCCGGGTGTGTGGGATAGACCCAGATGTGCAGTGGATGCGAGCATTTGAGTCAGAGTAGGAGCAAGCCCAGGGGCAAAGGGACCACATTGTGTATCCCGAATGAAGGATCGAGATTTCTCTCCTCATTACCCGGTGTCTTGTCACTGTTGGGGGGGCCCAACAGTCTTAGTCCTATACTGCCTGATAGGGTCGCGGCTGGCCGGACTCAAGTGCTATAGTCAGTTGATTTTCACTC
B6: the Expression stood at 1.35E+06.

B7: ABPV (nucleic acid)
DNA: CCCGTCAAAATAACAACTTATAACACGATGTTACCCGAAGAAACCATTTTAGTGTAACATTTAAGATTAGAAGTAGTTCATCTAATAGAGATAGGCACTATTAGAAGGAGGCCTTTTCTAAAGGAGCCGTTAGTCAGCCCAGACAAGCGCAGTACTTTAGAAGAGAGAAGTTCCCCGATAGCGACCGAAAAGACGCGTTTTCCGTGCTAACTAATTTAAATGTGGGAACGAATATTATTATTGAAATTATGTGAGCCACGTAGCAATCAAGTCATGTTTTTGTCACTACGTTTACTCATCTAATGTAGATAATTTTGTTTAAGTACCTATTTAGGTGTCATCCCACCAGAGAAGAAATAATACGTACCGGAACCCAGAGTACACCCCTTATTTTAAGCCTTACTGGGCTTCTCTGTTAGTTAGTAATCTGGCCCACGTTTTGCGTTGAGTGGGGTCCCAACAGTAGGAATTCGACGGACAAGTAGCAAGCGAGTCGGTACCAATTGGTTTAGCCTTCGAAATTACTCTGGGCAGGAAGTTACTAAACGAGAACTTTCTGCTTAAATCCCAACGCACAAACAAATAGAGTAAATAAATAATTATA
modifications: Acute bee paralysis virus
B7 gave an Expression of 6.48E+05.

B8: GFTV (nucleic acid)
DNA: ATGGGGAAGGGTATGACGTGCCCCTTCCTTCTTCGGAGAACTCGCTCTAGTGGTCTTTCCACTTCTGGAAAAGAGTGAGTGCACGTGATCAGGACCGTCGAAGACGACAAATACCTGGTGCTCTATCTCATAGACGTTTCACAGCTGTAGCGACCCCTCAGTAGCAGCGGAAGCCCCCTCCTGGTGACAGGAGCCTCTGCGGCCAAAAGCCACGTGGATAAGATCCACTGCTGAGGGCGGTGCGACCCTAGCACCCTGTGATGCATACTAGTTGTAGCGTGCCGGACTATTGGTCTGTCATAAGACACCTGATAGAGAGACCAAGAATGTCCTGGAGGTACCCCGCGTGCGGGATCTGACCAGGAGACCATTGCCCAATGCTTTACAACGGGTCTATGGTTTAAAAACTGTCGCAGTCTCTCCAAACCAAGTGGTCTTGGTTTTCAATTACTTTGAATATTTCACT
Molecule B8 showed an Expression of 1.23E+06.

B9: BRBV-1 (nucleic acid)
DNA: CCCCCCCTACTTAAAGATGTACGGTTTTGCTGCTTTCACAGAGTAAAGCAGATAGAGGTTCTGAACTGGCAAACTTTACCTCGAAACACGCCCGTTTTTCTGCTGTGTCTCACAGACTGTCCTGTCACACTTGTGGCGGCTTGTGACACTGTGAACATAGTGAGACCGACCAAGACAACAGTTTCAAGTGATGAACATCGAACGTCTAAACTGGATCCGTAACTGGACATGTTAGGGCAAGGACTTCCCCCCTGGTAACAGGAGCCTGGCTGGCCAAAAGCCCCGCTCATTGAGCCTAGCATGTTGTCGACCCTGGACTGTTCAGTTTAGTTAGTACATGGAATTCACTTGTCACGGTTCTTCTGAACTCGGTCTCTAGTATGACAGCCTAAGGATGCCCTCCAGGTACCCCGGGGTAACAAGTGACACCCGGGATCTGAGGAGGGGACTACTTTACGTAGTTTAAAAAACGTCTAAGCTGTTATGGTGACCAGAGGCTGGCACCTTTCACTTTTAAAATTACACTACTGACTACAATTGAAGTGATAACGGTTTTACAGGCTTTCAAACTAGTTACACAAGCACTGTTTTCCTGACACACACACTTT
modifications: Bovine rhinitis B virus
Regarding B9, the Expression was 3.34E+06.
